# Results published in patent US20260209362A1 (VIB VZW, published 2026).
# T1: human IL-12Rβ2 expressed on cells (human, UniProt Q99665 24-862)
# T1 construct: the cell lines are described by plasmid or cDNA number only; also called hIL-12RB2; HEK293T transiently transfected with human IL-12Rβ2
# T1 sequence: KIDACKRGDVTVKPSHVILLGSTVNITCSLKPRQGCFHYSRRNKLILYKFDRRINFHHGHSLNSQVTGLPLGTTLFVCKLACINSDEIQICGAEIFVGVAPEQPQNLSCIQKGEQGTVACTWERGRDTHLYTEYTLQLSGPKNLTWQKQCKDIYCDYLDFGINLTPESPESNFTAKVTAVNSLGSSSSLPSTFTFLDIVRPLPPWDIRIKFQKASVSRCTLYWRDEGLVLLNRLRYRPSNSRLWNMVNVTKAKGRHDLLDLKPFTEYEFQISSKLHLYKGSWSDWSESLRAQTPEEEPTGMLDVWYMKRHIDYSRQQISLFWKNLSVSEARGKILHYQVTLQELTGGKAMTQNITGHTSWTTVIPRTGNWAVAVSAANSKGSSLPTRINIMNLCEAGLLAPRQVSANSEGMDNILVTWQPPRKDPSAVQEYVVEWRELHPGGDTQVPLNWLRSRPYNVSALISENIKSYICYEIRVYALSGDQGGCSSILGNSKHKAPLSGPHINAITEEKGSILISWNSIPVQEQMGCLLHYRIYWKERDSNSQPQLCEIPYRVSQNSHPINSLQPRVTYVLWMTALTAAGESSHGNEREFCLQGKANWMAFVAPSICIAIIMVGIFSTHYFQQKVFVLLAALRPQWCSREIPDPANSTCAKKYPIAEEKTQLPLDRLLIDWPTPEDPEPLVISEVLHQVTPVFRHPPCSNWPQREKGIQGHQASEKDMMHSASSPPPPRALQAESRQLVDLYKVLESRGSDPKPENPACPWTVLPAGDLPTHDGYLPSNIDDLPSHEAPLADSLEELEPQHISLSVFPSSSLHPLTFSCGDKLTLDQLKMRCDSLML
# T2: biotinylated mouse recombinant IL-12Rβ2 (produced in-house) (mouse, UniProt P97378 24-637, random biotinylated)
# T2 construct: Soluble recombinant protein used for panning, ELISA and BLI; also called mIL-12RB2; mIL12RB2
# T2 sequence: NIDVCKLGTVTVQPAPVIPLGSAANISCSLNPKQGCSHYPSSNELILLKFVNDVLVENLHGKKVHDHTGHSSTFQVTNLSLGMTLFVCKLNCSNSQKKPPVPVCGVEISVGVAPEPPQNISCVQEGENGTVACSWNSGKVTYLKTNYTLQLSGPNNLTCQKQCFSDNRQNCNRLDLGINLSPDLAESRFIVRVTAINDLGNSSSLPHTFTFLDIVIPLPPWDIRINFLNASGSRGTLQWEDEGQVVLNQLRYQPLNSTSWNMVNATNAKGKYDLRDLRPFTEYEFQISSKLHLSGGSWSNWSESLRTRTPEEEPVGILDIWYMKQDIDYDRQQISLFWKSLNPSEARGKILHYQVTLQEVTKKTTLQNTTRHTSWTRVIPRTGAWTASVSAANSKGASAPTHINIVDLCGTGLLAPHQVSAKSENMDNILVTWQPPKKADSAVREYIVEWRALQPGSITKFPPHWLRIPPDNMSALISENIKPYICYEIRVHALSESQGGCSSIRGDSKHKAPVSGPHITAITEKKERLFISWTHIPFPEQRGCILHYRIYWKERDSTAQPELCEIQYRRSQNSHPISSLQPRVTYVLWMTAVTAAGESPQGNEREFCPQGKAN
# T3: biotinylated human recombinant IL-12Rβ2 (produced in-house) (human, UniProt Q99665 24-622, random biotinylated)
# T3 construct: Soluble recombinant protein used for panning, ELISA and BLI; also called hIL-12RB2; hIL12RB2
# T3 sequence: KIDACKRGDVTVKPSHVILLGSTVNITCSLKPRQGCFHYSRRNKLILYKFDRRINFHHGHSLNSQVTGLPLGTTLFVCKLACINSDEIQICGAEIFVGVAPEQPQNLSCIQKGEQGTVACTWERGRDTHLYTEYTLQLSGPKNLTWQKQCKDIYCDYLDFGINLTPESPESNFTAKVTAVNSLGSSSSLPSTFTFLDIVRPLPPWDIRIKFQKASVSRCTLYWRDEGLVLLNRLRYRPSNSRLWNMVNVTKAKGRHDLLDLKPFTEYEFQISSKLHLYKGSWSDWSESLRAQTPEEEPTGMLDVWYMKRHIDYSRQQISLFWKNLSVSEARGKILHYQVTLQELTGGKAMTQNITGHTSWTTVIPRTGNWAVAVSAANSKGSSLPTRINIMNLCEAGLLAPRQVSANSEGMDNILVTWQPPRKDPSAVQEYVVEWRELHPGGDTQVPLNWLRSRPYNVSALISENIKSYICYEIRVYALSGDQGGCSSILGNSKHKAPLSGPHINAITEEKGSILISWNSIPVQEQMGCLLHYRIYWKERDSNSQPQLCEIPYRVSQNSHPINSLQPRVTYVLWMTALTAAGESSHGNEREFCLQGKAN
# T4: mouse IL-12Rβ2 expressed on cells (mouse, UniProt P97378 24-874)
# T4 construct: the cell lines are described by plasmid or cDNA number only; also called mIL-12RB2; HEK293T transiently transfected with mouse IL-12Rβ2
# T4 sequence: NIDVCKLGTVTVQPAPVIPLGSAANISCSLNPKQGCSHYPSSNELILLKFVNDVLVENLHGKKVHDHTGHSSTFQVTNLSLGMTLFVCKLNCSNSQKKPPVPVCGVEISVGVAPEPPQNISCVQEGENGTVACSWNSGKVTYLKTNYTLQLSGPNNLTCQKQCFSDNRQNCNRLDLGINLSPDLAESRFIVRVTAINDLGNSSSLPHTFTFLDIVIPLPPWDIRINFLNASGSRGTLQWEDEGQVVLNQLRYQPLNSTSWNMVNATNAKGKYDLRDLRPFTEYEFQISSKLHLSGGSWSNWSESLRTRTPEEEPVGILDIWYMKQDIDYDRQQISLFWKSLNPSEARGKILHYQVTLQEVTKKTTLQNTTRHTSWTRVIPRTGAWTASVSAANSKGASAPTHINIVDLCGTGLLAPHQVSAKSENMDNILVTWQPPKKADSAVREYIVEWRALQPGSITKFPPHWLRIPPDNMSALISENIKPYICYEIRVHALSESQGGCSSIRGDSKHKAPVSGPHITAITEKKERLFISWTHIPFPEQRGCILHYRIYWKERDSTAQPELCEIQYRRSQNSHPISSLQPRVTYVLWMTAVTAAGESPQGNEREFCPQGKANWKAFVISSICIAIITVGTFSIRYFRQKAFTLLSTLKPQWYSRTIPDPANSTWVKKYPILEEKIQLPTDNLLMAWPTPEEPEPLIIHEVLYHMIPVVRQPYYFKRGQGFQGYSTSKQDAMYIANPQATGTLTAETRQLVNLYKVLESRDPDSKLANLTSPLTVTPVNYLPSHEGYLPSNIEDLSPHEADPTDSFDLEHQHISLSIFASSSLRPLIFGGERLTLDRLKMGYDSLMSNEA
# T5: biotinylated recombinant mouse IL-12Rβ2 (mouse, UniProt P97378 24-637, random biotinylated)
# T5 construct: Recombinant protein produced in-house; also called mIL-12RB2; mouse IL-12RB2
# T5 sequence: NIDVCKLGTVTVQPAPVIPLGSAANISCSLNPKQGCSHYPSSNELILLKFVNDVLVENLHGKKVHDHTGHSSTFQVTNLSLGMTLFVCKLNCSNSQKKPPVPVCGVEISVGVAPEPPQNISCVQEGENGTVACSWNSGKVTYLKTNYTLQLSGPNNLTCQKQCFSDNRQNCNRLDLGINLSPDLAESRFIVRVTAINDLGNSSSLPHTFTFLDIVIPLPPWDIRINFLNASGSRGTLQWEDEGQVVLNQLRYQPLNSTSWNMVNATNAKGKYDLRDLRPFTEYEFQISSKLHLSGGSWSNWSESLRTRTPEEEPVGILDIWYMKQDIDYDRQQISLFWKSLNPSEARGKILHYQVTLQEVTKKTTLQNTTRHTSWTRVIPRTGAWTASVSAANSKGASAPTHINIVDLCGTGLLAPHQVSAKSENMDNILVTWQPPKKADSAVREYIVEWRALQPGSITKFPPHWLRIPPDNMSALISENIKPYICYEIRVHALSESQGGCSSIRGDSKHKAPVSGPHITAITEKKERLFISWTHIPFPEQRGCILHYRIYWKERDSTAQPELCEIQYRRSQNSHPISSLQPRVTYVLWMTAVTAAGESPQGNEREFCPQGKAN
# T6: biotinylated recombinant human IL-12Rβ2 (human, UniProt Q99665 24-622, random biotinylated)
# T6 construct: Recombinant protein produced in-house; also called hIL-12RB2; human IL-12RB2
# T6 sequence: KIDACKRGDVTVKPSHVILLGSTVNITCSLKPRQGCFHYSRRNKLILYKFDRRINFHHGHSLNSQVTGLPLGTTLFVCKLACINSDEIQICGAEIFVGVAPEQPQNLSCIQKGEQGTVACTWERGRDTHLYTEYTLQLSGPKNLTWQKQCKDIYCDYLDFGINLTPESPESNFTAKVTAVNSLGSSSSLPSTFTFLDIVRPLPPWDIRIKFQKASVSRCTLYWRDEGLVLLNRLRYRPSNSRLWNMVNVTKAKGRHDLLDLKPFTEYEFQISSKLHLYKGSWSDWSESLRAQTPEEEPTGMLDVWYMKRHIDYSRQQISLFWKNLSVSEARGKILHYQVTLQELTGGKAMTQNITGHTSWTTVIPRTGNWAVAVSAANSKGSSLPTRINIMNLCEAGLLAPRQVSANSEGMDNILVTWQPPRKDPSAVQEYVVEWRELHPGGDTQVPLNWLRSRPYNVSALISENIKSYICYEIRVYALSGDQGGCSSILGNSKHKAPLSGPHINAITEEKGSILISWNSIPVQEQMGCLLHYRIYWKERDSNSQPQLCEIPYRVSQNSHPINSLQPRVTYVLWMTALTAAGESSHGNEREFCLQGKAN
# Tests used:
# [1] = biological target: T1, human IL-12Rβ2 expressed on cells; assay: flow cytometry, periplasmic extract VHH-HA on HEK293T cells transiently expressing human IL-12Rβ2
# [2] = biological target: T2, biotinylated mouse recombinant IL-12Rβ2 …; assay: ELISA, periplasmic extract on biotinylated mouse IL-12Rβ2; signal over streptavidin control well
# [3] = biological target: T3, biotinylated human recombinant IL-12Rβ2 …; assay: ELISA, periplasmic extract on biotinylated human IL-12Rβ2; signal over streptavidin control well
# [4] = biological target: T2, biotinylated mouse recombinant IL-12Rβ2 …; assay: BLI (Octet Red), periplasmic extract on biotinylated mouse IL-12Rβ2 on streptavidin tips, 1:1 model
# [5] = biological target: T4, mouse IL-12Rβ2 expressed on cells; assay: flow cytometry, periplasmic extract VHH-HA on HEK293T cells transiently expressing mouse IL-12Rβ2
# [6] = biological target: T3, biotinylated human recombinant IL-12Rβ2 …; assay: BLI (Octet Red), periplasmic extract on biotinylated human IL-12Rβ2 on streptavidin tips
# [7] = biological target: T3, biotinylated human recombinant IL-12Rβ2 …; assay: BLI (Octet Red), periplasmic extract on biotinylated human IL-12Rβ2 on streptavidin tips, 1:1 model
# [8] = biological target: T2, biotinylated mouse recombinant IL-12Rβ2 …; assay: BLI (Octet Red), periplasmic extract on biotinylated mouse IL-12Rβ2 on streptavidin tips
# [9] = biological target: T5, biotinylated recombinant mouse IL-12Rβ2; assay: BLI, P.E., off-rate ranking
# [10] = biological target: T6, biotinylated recombinant human IL-12Rβ2; assay: BLI, P.E., off-rate ranking
# [11] = biological target: T5, biotinylated recombinant mouse IL-12Rβ2; assay: ELISA, P.E., biotinylated antigen
# [12] = biological target: T6, biotinylated recombinant human IL-12Rβ2; assay: ELISA, P.E., biotinylated antigen
Binder,% cells bound [1] [%],dMFI [1],mIL12RB2/control (ELISA) [2] [ratio],hIL12RB2/control (ELISA) [3] [ratio],koff [4] [s⁻¹],% cells bound [5] [%],dMFI [5],Response [6],koff [7] [s⁻¹],Response [8],Response [9],koff [9] [s⁻¹],Response [10],koff [10] [s⁻¹],ELISA mIL-12RB2/control [11],ELISA hIL-12RB2/control [12]
"anti-IL-12Rβ2 VHH clone 3CRHM73 (clone ID 21060) (VHH, Tested as periplasmic extract; not shown: C-terminal HA tag) VHH: QVQLQESGGGLVQAGGSLSLSCAASGSAFRLNFMGWYRQAPGKQRELVAAINSGGTEIYHDSVKGRFTISRDNADSTVWLQMNSLKPDDTAVYYCAADRGISWSKLAGGMDYWGKGTQVTVSS",19.5,297,26.3,6.9,0.00605,10.4,257,1.45,0.00605,0.944,,,,,,
"anti-IL-12Rβ2 VHH clone 3CAHM11 (clone ID 21050) (VHH, Tested as periplasmic extract; not shown: C-terminal HA tag) VHH: QVQLQESGGGLVQAGGSLRLSCAASGRTFNNYAMAWFRQAPGKEREFIAAITRSDTTLYIDSVKGRFTISRDNAKNTVALQMNSLKPEDTAVYYCAAGMPYSYSDYPRDSKYDYWGRGTQVTVSS",37.6,684,38.8,3.04,0.00462,7.51,194,1.4,0.00519,1.03,,,,,,
"anti-IL-12Rβ2 VHH clone 3CAHM11 (clone ID 21050) (VHH, not shown: small tags and cut ends, periplasmic extract) VHH: QVQLQESGGGLVQAGGSLRLSCAASGRTFNNYAMAWFRQAPGKEREFIAAITRSDTTLYIDSVKGRFTISRDNAKNTVALQMNSLKPEDTAVYYCAAGMPYSYSDYPRDSKYDYWGRGTQVTVSS",,,,,,,,,,,1.03,0.00462,1.4,0.00519,38.8,3.04
"anti-IL-12Rβ2 VHH clone 3CRHM14 (clone ID 21053) (VHH, Tested as periplasmic extract; not shown: C-terminal HA tag) VHH: QVQLQESGGGLVQAGGSLRLSCAASGRTFSNYAMAWFRQAPGTEREFVAGLSGSGGDTEFYDDSVKGRFAISRDSAKNTVWLQMNSLKPEDTAVYYCAAATHVVVHYGLVRRRGTYDYWGQGTQVTVSS",35.8,589,25.1,3.11,0.00483,18.6,312,1.19,0.00532,0.957,,,,,,
"anti-IL-12Rβ2 VHH clone 3CRHM99 (clone ID 21062) (VHH, Tested as periplasmic extract; not shown: C-terminal HA tag) VHH: QVQLQESGGGLVQPGGSLRLSCAASGISSSRLHVGWFRQSPGKEREFVAAISLSGGTQAYTDSVKGRFTISGDNVKNTAYLQMNSLRPEDTAVYYCAARERFIWTWSDLTYDYWGQGTQVTVSS",24.4,458,5.24,4.24,0.00671,10.7,251,1.45,0.00634,0.812,,,,,,
